In the DeepSol protein solubility set:

Assay: soluble on expression in E. coli; label from the status in PepcDB or PDB records

Row | Sequence | soluble on expression in E. coli
1 | MNNSNLAAARNLIQVVTGEWKSRCVYVATRLGLADLIESGIDSDETLAAAVGSDAERIHRLMRLLVAFEIFQGDTRDGYANTPTSHLLRDVEGSFRDMVLFYGEEFHAAWTPACEALLSGTPGFELAFGEDFYSYLKRCPDAGRRFLLAMKASNLAFHEIPRLLDFRGRSFVDVGGGSGELTKAILQAEPSARGVMLDREGSLGVARDNLSSLLAGERVSLVGGDMLQEVPSNGDIYLLSRIIGDLDEAASLRLLGNCREAMAGDGRVVVIERTISASEPSPMSVLWDVHLFMACAGRHRTTEEVVDLLGRGGFAVERIVDLPMETRMIVAARA | soluble
2 | MKPKVLLAGGTGYIGKYLSEVIENDAELFTISKYPDNKKTDDVEMTWIQCDIFHYEQVVAAMNQIDIAVFFIDPTKNSAKITQSSARDLTLIAADNFGRAAAINQVKKVIYIPGSRYDNETIERLGAYGTPVETTNLVFKRSLVNVELQVSKYDDVRSTMKVVLPKGWTLKNVVNHFIAWMGYTKGTFVKTEKSHDQFKIYIKNKVRPLAVFKIEETADGIITLILLSGSLVKKYTVNQGKLEFRLIKESAVVYIHLYDYIPRLFWPIYYFIQAPMQKMMIHGFEVDCRIKDFQSRLKSGENMKYTK | not soluble
3 | MNLDKVNKYIKDFEKTIKKPKINFDKSKFYVGVDLGTANIVITILDKDGKPVAGVTQRSRVVRDGIVVDFMEAIEIVRKLKENLEKKLGIEITEGYTAIPPGVEQGSVRAIVNVIESAGIDVLKVVDEPTAASYVLGITDGVVVDLGGGTTGISILEKGKVIFVADEPTGGTHMTLVLAGSYGIDFETAEDIKTDKKKEKEVFVQITPVLQKMAAIVKKYIKDYKVKDVFLVGGACSFDGSESIFERELGLNIYKPYMPVYITPLGIALAGMKSLEHHHHHH | soluble
4 | MGSDKIHHHHHHMSFSMLRAALVLGSIGCAFSPQVNAKLNPLTVQIQPLAQSKLLLDLANAGDQLIAVGQRGHVLVYDKSWIQVPTPVLSQLTKVFFLDAKLGWAVGHDASIIHTQDGGQTWQLQMQSREIEKPFLDIRFFNANEGIAIGAYGLFYRTLDGGKTWEPEFHEELLFEEDVSYLAELKAEDEALYLSERAALLPHFNRIIRLNDSRLLLVGELGLVAESKDNGKHFTRTDFDYDGSMFNAIQVGEQIYVMGLRGHVFKTDLSLSDWQQVELPVKSSINGALVHKGELYIVGNAGVVLRLDGKGHAEIVARRQGENIVAVAESADKQLWFAGSNGLFQLK | not soluble
5 | MAGKITVVGLGAGDMDQLTIGIHKLLTKADTLYVRTKDHPLIEELEKETKNIRFFDDIYEKHDQFEAVYEEIADILFEAARREDVVYAVPGHPFVAEKTVQLLTERQEKENVQVKVAGGQSFLDATFNVLQIDPIEGFQFVDAGTLSADELELRHHLIICQVYDQMTASEVKLTLMEKLPDDYEVVIVTAAGSRGEEIRTVPLFELDRNVALNNLTSVYIPPIKEEKLLYHEFSTFRSIIRELRGPNGCPWDKKQTHQSLKQYMIEECYELLEAIDEEDTDHMIEELGDVLLQVLLHAQIGEDEGYFTIDDVIKGISEKMVRRHPHVFKDVKVQDENDVLANWEDIKKAEKNTSESSLLDSVPKTLPALSKAAKLQKKAAKVGFDWEDVSDIWEKVSEEMKEFSSEVSEAPHEHNLKAEFGDILFALVNVARFYKIEPEEALTMTNDKFRRRFSYIEETAKEEGVELADMSLEDMDKLWNEAKETERRS | soluble
6 | MIKVLLLDVDGTLLSFETHKVSQSSIDALKKVHDSGIKIVIATGRAASDLHEIDAVPYDGVIALNGAECVLRDGSVIRKVAIPAQDFRKSMELAREFDFAVALELNEGVFVNRLTPTVEQIAGIVEHPVPPVVDIEEMFERKECCQLCFYFDEEAEQKVMPLLSGLSATRWHPLFADVNVAGTSKATGLSLFADYYRVKVSEIMACGDGGNDIPMLKAAGIGVAMGNASEKVQSVADFVTDTVDNSGLYKALKHFGVI | not soluble
7 | MSVLAVQAQRTSIGITAGTGTAWLSDTDRDVVFNPVWNAGATLVYSSETHWGFGADIKYSREGVKFTYAGTGNYNGQTMTTRVGSDFIRIPLRAIYFFNKNENAFRPNVSLGPSFGILTGGEIKTYDGDKNVIGTSKVSDSFRDVDFGLQGTAGASIMLSDGLWFSADIVYYQGLNKQNKNGTNTMLNSNVGINLGLRIGVGR | not soluble
8 | MSESFDCAKCNESLYGRKYIQTDSGPYCVPCYDNTFANTCAECQQLIGHDSRELFYEDRHFHEGCFRCCRCQRSLADEPFTCQDSELLCNDCYCSAFSSQCSACGETVMPGSRKLEYGGQTWHEHCFLCSGCEQPLGSRSFVPDKGAHYCVPCYENKFAPRCARCSKTLTQGGVTYRDQPWHRECLVCTGCQTPLAGQQFTSRDEDPYCVACFGELFAPKCSSCKRPIVGLGGGKYVSFEDRHWHHNCFSCARCSTSLVGQGFVPDGDQVLCQGCSQAGP | soluble
9 | KPGARIGVGMEYQFNDMISLQPSLFFSQKGAKYSSGFDGNIIDADADVKINQLYLELPVNVQFRFNIADNTNLVIATGPYLACGVGGKAKFDGDASVGGIHINGDDKIDTFGDDGLDYNRFDAGWNIGLGVEFGKILVGLDTQLGFCKVMDGDAPHNANIGITLGYKF | not soluble
10 | SNPTITRIELSYQDSSIANGTSTTLEVTAIFDNGTNQNITDSTSIVPDSQSVVTIEGNRVRGIASGSSIIKAEYNGLYSEQKITVTPAILNSIQVTSLESGILPKGTNRQFSAIGIFSDGSHQDISNEPLIVWSSSNPDLVRVDDSGLASGINLGTAHIRASFQSKQGAEEMTVGDAVLSQIQVTSNDLNIPLGKKQKLTATGIYSDNSNRDISSSVIWNSSNSTIANIQNNGILETADTGIVTVSASSENIIGSVKLIVTPAALVSISVSPTNSTVAKGLQENFKATGIFTDNSNSDITDQVTWDSSNTDILSISNASDSHGLASTLNQGNVKVTASIGGIQGSTDFKVTQAALTSIEVSPTRTSIAKGLTQKFTAIGIFTDNSKKDITDQVTWNSSSAIVSVSNLDNNKGLGKTNSVGNTTITATLGKVSGNTWFTVVPAV | not soluble
11 | SLVTSLKGLWTLRAFGRQPYFETSGGGSGGGSGGGSGGGSGGGEYNLTTTEVVMENVTAFWEEGGTPVLKDINFKIERGQLLAVAGSTGAGKTSLLMMIMGELEPSEGKIKHSGRISFCSQFSWIMPGTIKENIIFGVSYDEYRYRSVIKACQLEEDISKFAEKDNIVLGEGGITLSGGQRARISLARAVYKDADLYLLDSPFGYLDVLTEKEIFESCVCKLMANKTRILVTSKMEHLKKADKILILHEGSSYFYGTFSELQNLQPDFSSKLMG | soluble
12 | MQDEFDLFRTETKGIKPIKQDTFVAPRQKRDQKKIELKELRAKEDTLFYFSDEYEPLLNDNDGVVKYLRDGEDSHLLKQLRRGDFSPELFLDLHGLTREQAKQELAALLLACENEHVDCASIMTGYGTFTLKKQIPRWLVQHPKVRALHQAPREWGGEAAILILVDL | soluble
13 | MGSDKIHHHHHHMSFSNEMKVFSGNANRPLAEKIANYLNLQLGDCEVGRFADGEINVRINETVRGHDIFLIQPTSPPVNENLMELLIMIDAFKRASANTIAVVIPYYGYARQDRKAKGRDPISAKLVANLITVAGATRVLTVDLHAEQIQGFFDIPVDNLWSYPVFAEELLKRENIVPEETVVVSPDVGGVRRARRMAERLGTSLAILDKRRPSDNVAEVVNIIGEVEDKVVIMFDDIIDTAHSIVKGAEALKNAGAKRIIACATHGVFSDRALERIENSSIDTVYITDTIYHENLPEKVKVISVANLIGEAIMRIRKHLSVSTLFR | not soluble
14 | MAHHHHHHMLRGKSGLTASSSLEGGSEFSERIGNTLSSFLSESASLEVIGNELADNIANEIVGSLQNDSASFLQSEFDVKAQLKATAKKVLTEALKAALEPTEKIVASTIKPPRIKEDIYFLLSPVVRSLFNKVEDVLHKPVSDDIWNYESRGSSSEEEDEVDSDEDFLD | soluble
15 | MCDISTEDQLLEFARKAAESGDQTQTFEFKKHIGFLIRHLNVFPQPYNTLETSRNTIFLFAISSLDLLGELDNLLTPERRQAYIDWIYGLQFTNGNVCGFRGSHSCENSGYDEANLAQTYSALLSLAILGDDLKKVDRKAILKTVKTAQRDNGCFWSQGVGSESDMRFVFCAVAISHILDGDKEQTIDWTKLAGFLRQSLNIDGGIGQAPGDESHGGSTFCAIASLALSNRLWTEEVLTRRDIDRLIRWAIQKQDIGFHGRAHKPDDSCYAFWIGATLKILNAYHLVSKQHLREFLMICQHPHIGGFCKYPEPGGYSDILHTYFSIAALSLLGEPAVNPVHPSLNVSMRVAERIARLQFD | not soluble
